Sequences and labels used below:
B1: human CEACAM1 IgV domain, wild type (tagless hCEACAM1 IgV domain) (receptor)
chain: QLTTESMPFNVAEGKEVLLLVHNLPQQLFGYSWYKGERVDGNRQIVGYAIGTQQATPGPANSGRETIYPNASLLIQNVTQNDTGFYTLQVIKSDLVNEEATGQFHVYP
notes: also called hCEACAM1 WT; WT

Data set [1] concerns the molecule itself. As to the kind of experiment: PDB-PISA analysis of the dimer crystal structure.
Data set [2] concerns the molecule itself. As to the kind of experiment: DSF and SEC-MALS (FIGS. 14B and 14C). A general note: SEC sorts molecules by how far they enter the pores of the column.
Data set [3] has as its target B1. The data set can be described thus: PDB-PISA analysis of the dimer crystal structure.
The target of data set [4] is B1. The data set can be described thus: structure of the heterodimer (FIG. 10C).
Data set [5] addresses B1. As to the kind of experiment: ELISA binding assay, tagless hCEACAM1 IgV protein added to WT hCEACAM1; signal given as fold response relative to WT.

Turning to B1, the “PDB dimer formation score (PDB-PISA)” value in data set [1] was 0.89.

B2: hCEACAM1 IgV domain mutant I91A (receptor)
chain: QLTTESMPFNVAEGKEVLLLVHNLPQQLFGYSWYKGERVDGNRQIVGYAIGTQQATPGPANSGRETIYPNASLLIQNVTQNDTGFYTLQVAKSDLVNEEATGQFHVYP
notes: also called hCEACAM1 I91A
For B2, in data set [2], the binding result was “binds”.

B3: hCEACAM1 IgV domain variant D40R (receptor)
chain: QLTTESMPFNVAEGKEVLLLVHNLPQQLFGYSWYKGERVRGNRQIVGYAIGTQQATPGPANSGRETIYPNASLLIQNVTQNDTGFYTLQVIKSDLVNEEATGQFHVYP
notes: also called hCEACAM1 D40R
In the case of B3, in data set [1], the “PDB dimer formation score (PDB-PISA)” value is 0.93.

B4: hCEACAM1 IgV domain mutant V39A (receptor)
chain: QLTTESMPFNVAEGKEVLLLVHNLPQQLFGYSWYKGERADGNRQIVGYAIGTQQATPGPANSGRETIYPNASLLIQNVTQNDTGFYTLQVIKSDLVNEEATGQFHVYP
notes: also called hCEACAM1 V39A
For the molecule B4, in data set [2], the binding result is listed as “binds”.

B5: hCEACAM1 IgV domain variant R38D (receptor)
chain: QLTTESMPFNVAEGKEVLLLVHNLPQQLFGYSWYKGEDVDGNRQIVGYAIGTQQATPGPANSGRETIYPNASLLIQNVTQNDTGFYTLQVIKSDLVNEEATGQFHVYP
notes: also called tagless R38D; hCEACAM1 R38D
For the molecule B5, in data set [3], the “PDB dimer formation score (PDB-PISA)” value was 0.91.

B6: hCEACAM1 IgV domain variant R38D/G41S (receptor)
chain: QLTTESMPFNVAEGKEVLLLVHNLPQQLFGYSWYKGEDVDSNRQIVGYAIGTQQATPGPANSGRETIYPNASLLIQNVTQNDTGFYTLQVIKSDLVNEEATGQFHVYP
notes: also called R38D G41S monomer
With B6, the binding result in data set [4] is “binds”.

B7: hCEACAM1 IgV domain variant Q89H (receptor)
chain: QLTTESMPFNVAEGKEVLLLVHNLPQQLFGYSWYKGERVDGNRQIVGYAIGTQQATPGPANSGRETIYPNASLLIQNVTQNDTGFYTLHVIKSDLVNEEATGQFHVYP
notes: also called tagless Q89H; hCEACAM1 Q89H
As to B7, in data set [5], the binding result is “binds”. The “PDB dimer formation score (PDB-PISA)” value in data set [1] turned out to be 0.96.

These data come from patent publication US20260193309A1 (BRIGHAM AND WOMEN S HOSPITAL, published 2026).
